Assay results taken from patent US20070071744A1.
“And” between values parts separate entries of the source, which are not always exact repeats. Identical values can stand only once. One block for each substance: values may come before it.

What was measured:
[1] = target: Fc-GPVI-nt (immunoadhesin: extracellular domain of human GPVI fused via Gly-Gly-Arg to human IgG Fc, dimer) (human); assay: competition ELISA, immobilized collagen as competitor
[2] = target: mouse GPVI on mouse platelets (mouse) (UniProt P0C191); assay: cell-based or functional assay
peptide 117 (human) = target: T1, peptide 117 (human); assay: PepSpot peptide array, control incubation
T1 sequence (peptide, N-terminus acetylated): SFTNKVFTTETSR

peptide 7 (human) = target: T2, peptide 7 (human); assay: PepSpot peptide array, control incubation
T2 sequence (peptide, N-terminus acetylated): LCLGRVPAQSGPL

peptide 118 (human) = target: T3, peptide 118 (human); assay: PepSpot peptide array, control incubation
T3 sequence (peptide, N-terminus acetylated): TNKVFTTETSRSI

mouse GPVI on mouse platelets (mouse), sequence (P0C191 22-313): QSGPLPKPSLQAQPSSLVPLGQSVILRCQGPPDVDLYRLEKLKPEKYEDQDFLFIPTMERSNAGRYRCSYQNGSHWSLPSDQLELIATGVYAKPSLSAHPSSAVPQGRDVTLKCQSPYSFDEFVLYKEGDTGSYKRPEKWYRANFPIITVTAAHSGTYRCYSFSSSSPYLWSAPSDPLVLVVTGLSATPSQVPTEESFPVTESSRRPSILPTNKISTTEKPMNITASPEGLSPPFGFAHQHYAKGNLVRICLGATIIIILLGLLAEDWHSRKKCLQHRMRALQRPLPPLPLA
Fc-GPVI-nt (immunoadhesin: extracellular domain of human GPVI fused via Gly-Gly-Arg to human IgG Fc, dimer) (human), sequence (chain, as listed by the source limits assumed): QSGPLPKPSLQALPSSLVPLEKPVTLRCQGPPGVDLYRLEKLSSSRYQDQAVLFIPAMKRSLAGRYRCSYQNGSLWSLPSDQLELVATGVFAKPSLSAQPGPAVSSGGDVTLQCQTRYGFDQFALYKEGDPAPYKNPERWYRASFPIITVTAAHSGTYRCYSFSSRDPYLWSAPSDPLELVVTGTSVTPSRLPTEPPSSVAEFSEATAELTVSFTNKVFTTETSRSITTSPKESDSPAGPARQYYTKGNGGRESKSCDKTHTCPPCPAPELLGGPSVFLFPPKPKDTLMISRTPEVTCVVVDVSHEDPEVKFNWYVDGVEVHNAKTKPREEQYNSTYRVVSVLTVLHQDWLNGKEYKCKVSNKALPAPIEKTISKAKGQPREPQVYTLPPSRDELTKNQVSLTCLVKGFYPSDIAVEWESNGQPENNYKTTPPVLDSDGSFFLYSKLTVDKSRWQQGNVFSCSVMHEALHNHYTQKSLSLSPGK

concentration required to reduce Fc-GPVI-nt binding by more than 50% [1]: 100 µg/mL
Substance: soluble collagen (solubilized fibrillar collagen) (ligand)

ATP release [2]: 1.09 nM ATP | platelet aggregation of mouse platelet-rich plasma after stimulation with 2 µg collagen/ml [2]: 2% and 1.5%
Substance: monoclonal antibody anti GPVI (JAQ1)

LU (Light Units) (peptide 117 (human)): 377 LU | LU (Light Units) (peptide 7 (human)): 239 LU | LU (Light Units) (peptide 118 (human)): 354 LU
Substance: anti-rat-HRP (Sigma A9037) (antibody)
